{"source": "patent US20220119501A1", "about": "(INVISISHIELD TECHNOLOGIES, published 2022)", "binders": {"B1": {"name": "anti-S1 (SARS-CoV-2) scFv clone #26 (scFv)", "scFv": "QAVLTQAPSASGTLGQQVTISCSGTTSNIGRNTVNWYQHLPGTAPKLLIFVSNQRPSGVPDRFSGSKSGTSASLVISGLQSEDEADYYCGAWDDSLDGMLFGGGTKLTVLGSRGGGGSGGGGSGGGGSLEMAQVQLVQSGAEVKKPGASVKVSCKASGYTFTSYGISWVRQAPGQGLEWMGWISAYNGNTNYAQKLQGRVTMTTDTSTSTAYMELRSLRSDDTAVYYCARGYYGDLDPWGQGTLVTVSSTSGQAGQ"}, "B2": {"name": "anti-S1 (SARS-CoV-2) scFv clone #20 (scFv)", "scFv": "SYVLTQPPSASGTPGQRVTISCSGSSSNIGSNTVNWYQQLPGTAPKLLIYSNNQRPSGVPDRFSASKSGTSASLAISGFQSEDEADYYCAAWDDSLDGYVFGTGTKVTVLGSRGGGGSGGGGSGGGGSLEMAEVQLVQSGAEVKKPGESLKISCKGSGYSFPSYWIGWVRQMPGKGLEWMGIIYPGDSDTRYSPSFQGQVTISADKSISTAYLQWSSLKASDTAMYYCARGSYTYMGGSYDYWGQGTLVTVSSTSGQAGQ", "notes": "also called phage clone #20"}, "B3": {"name": "anti-S1 (SARS-CoV-2) scFv clone #13 (scFv)", "scFv": "QSVLTQPPSASGTPGQRVTISCSGSSSNIGSNYVYWYQQLPGTAPKLLIYRNNQRPSGVPDRFSGSKSGTSASLAISGLRSEDEADYYCAAWDDSLSGPNYVFGTGTKVTVLGSRGGGGSGGGGSGGGGSLEMAQVQLVQSGAEVKKPGSSVKVSCKASGGTFSSYAISWVRQAPGQGLEWMGWISGYNGNTNYAQKLQGRVTMTTDTSTSTAYMELRSLRSDDTAVYYCARTGWSKGEKVTTWGEWFYVDYWGQGTLVTVSSTSGQAGQ", "notes": "also called phage clone #13"}, "B4": {"name": "anti-S1 (SARS-CoV-2) scFv clone #09 (scFv)", "scFv": "NFMLTQPHSVSESPGKTVSISCTGSSGSIASNYVQWYQQRPGSAPTTVIYEDKERPSGVPNRFSGSIDRSSNSASLTISGLKTEDEADYYCQSYDDGNVVFGGGTKLTVLGSRGGGGSGGGGSGGGGSLEMAEVQLVESGAEVKKPGASVKVSCKASGYTFTSYGISWVRQAPGQGLEWMGWISAYNGNTNYAQKFQDRVTLTTDTSTNTAYMLLRSLRSDDTAVYYCARTWYSYHYDIWGQGTLVTVSSTSGQAGQ", "notes": "also called phage clone #09"}, "B5": {"name": "anti-S1 (SARS-CoV-2) scFv clone #19 (scFv)", "scFv": "QSALTQPASVSGSPGQSITISCTGTSSDVGGYNYVSWYQQHPGKVPKLMIYEVSNRPSGVSNRFSGSKSGNTASLTISGLQAEDEADYYCSSYTSGDTLVFGGGTKVTVLGSRGGGGSGGGGSGGGGSLEMAELQLVESGGGVVQPGRSPRLSCAASGFTFSNYPMHWVRQAPGKGLEWVAVISYDGNHKYYADSLEGRFSISRDNSKNTLYLQMNSLTAADTAVYYCARGGGMGGLDSWGQGTLVTVSSTSGQAGQ", "notes": "also called phage clone #19"}, "B6": {"name": "anti-S1 (SARS-CoV-2) scFv clone #30 (scFv)", "scFv": "QSALTQPPSASGSPGQSVTISCTGTSSDVGGYDYVSWYQQHPGKAPKLMIYEVSKRPSGVSNRFSGSKSGNTASLTISGLQAEDEADYYCSSYTSSSTFPYVFGTGTKVTVLGSRGGGGSGGGGSGGGGSLEMAEVQLVESGGGLEQPGGSLRLSCAASGFTFSSYAMSWVRQAPGKGLEWVSAISASGNSTFYADSVKGRFTISRDNSKHTLDLQMNSLRADDTAVYYCARNSDVWGQGTLVTVSSTSGQAGQ", "notes": "also called phage clone #30"}, "B7": {"name": "anti-S1 (SARS-CoV-2) scFv clone #15 (scFv)", "scFv": "QSVLTQPPSVSEAPRQRVTISCSGSSSNIGNNAVNWYQQLPGKAPKLLIYFNDVQSSGVSDRFSGSKSGTSASLAISGLQSEDEADYYCAAWDDSLNAVLFGGGTKLTVLGSRGGGGSGGGGSGGGGSLEMAEVQLVQSGAEVKKPGASVKVSCKASGYTFTGYYMHWVRQAPGQGLEWMGRINPNSGGTDYARKFRGRVTMTRDTSISTAYMELSRLTSDDTAMYYCARGYGDDWGQGTLVTVSSTSGQAGQ", "notes": "also called phage clone #15"}}, "data": [{"biological_target": "T1, S1 subunit polypeptide of SARS-CoV-2 spike protein (isolate 2019-nCoV, WIV4) (SARS-CoV-2 (isolate 2019-nCoV, WIV4), UniProt P0DTC2 16-685)", "test": "not given", "units": {"IC50": "nM"}, "values": [{"binder": "B1", "IC50": 1.33}]}, {"biological_target": "T1, S1 subunit polypeptide of SARS-CoV-2 …", "test": "phage ELISA on SARS-CoV-2 spike S1 (FIG. 1)", "values": [{"binder": "B2", "binding result": "binds"}, {"binder": "B3", "binding result": "binds"}, {"binder": "B4", "binding result": "binds"}, {"binder": "B5", "binding result": "binds"}, {"binder": "B6", "binding result": "binds"}, {"binder": "B7", "binding result": "binds"}]}]}
